# Results: patent US20040002144
# “Also recorded” adds a separate entry of the source.
# What was measured:
# [1] = biological target: T1, ovalbumin, P01012
# T1 chain: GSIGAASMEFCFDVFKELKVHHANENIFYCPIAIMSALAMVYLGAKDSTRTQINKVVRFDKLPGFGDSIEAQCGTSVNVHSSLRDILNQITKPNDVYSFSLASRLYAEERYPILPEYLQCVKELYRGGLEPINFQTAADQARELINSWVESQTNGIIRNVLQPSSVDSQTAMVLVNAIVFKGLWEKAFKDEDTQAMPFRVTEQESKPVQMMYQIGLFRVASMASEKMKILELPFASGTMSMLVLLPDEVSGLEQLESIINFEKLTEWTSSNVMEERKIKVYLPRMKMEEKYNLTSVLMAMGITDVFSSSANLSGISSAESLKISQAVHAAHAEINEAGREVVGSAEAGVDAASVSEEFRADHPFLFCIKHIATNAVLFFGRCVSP
# [2] = biological target: insulin A chain wherein cysteine residue had been oxidized (Sigma)
# Sequence of insulin A chain wherein cysteine residue had been oxidized (Sigma) (chain, as listed by the source): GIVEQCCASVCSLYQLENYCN
Protein,"15N-labeling rate of the ovalbumin glutamine residue giving signal ""a"" [1]",groups of 1H-15N HSQC signals of 15N-labeled ovalbumin glutamine residues after 6 hours [1],other results
"transglutaminase derived from Streptoverticillium mobaraense (MTG), wild type (protein) DSDDRVTPPAEPLDRMPDPYRPSYGRAETVVNNYIRKWQQVYSHRDGRKQQMTEEQREWLSYGCVGVTWVNSGQYPTNRLAFASFDEDRFKNELKNGRPRSGETRAEFEGRVAKESFDEEKGFQRAREVASVMNRALENAHDESAYLDNLKKELANGNDALRNEDARSPFYSALRNTPSFKERNGGNHDPSRMKAVIYSKHFWSGQDRSSSADKRKYGDPDAFRPAPGTGLVDMSRDRNIPRSPTSPGEGFVNFDYGWFGAQTEADADKTVWTHGNHYHAPNGSLGAMHVYESKFRNWSEGYSDFDRGAYVITFIPKSWNTAPDKVKQGWP",the order of the 15N-labeling rate was S2Y<S2D<wild type<S2R,6 groups of the signals were found when the wild type was used,"15N-labeled residue identified by mass spectrometry [2]: in the two glutamine residues in insulin A chain, the 15th glutamine residue was the substrate of MTG"
Sg4 mutant MTG (residue Nos. 241 to 252 replaced with 3 glycine residues) (protein) DSDDRVTPPAEPLDRMPDPYRPSYGRAETVVNNYIRKWQQVYSHRDGRKQQMTEEQREWLSYGCVGVTWVNSGQYPTNRLAFASFDEDRFKNELKNGRPRSGETRAEFEGRVAKESFDEEKGFQRAREVASVMNRALENAHDESAYLDNLKKELANGNDALRNEDARSPFYSALRNTPSFKERNGGNHDPSRMKAVIYSKHFWSGQDRSSSADKRKYGDPDAFRPAPGTGLVDMSRDRNIGGGNFDYGWFGAQTEADADKTVWTHGNHYHAPNGSLGAMHVYESKFRNWSEGYSDFDRGAYVITFIPKSWNTAPDKVKQGWP,,"only 3 groups and 2 groups of the signals were found when Sg4 and Sg7 were used, respectively",
Sg7 mutant MTG (residue Nos. 278 to 287 replaced with 3 glycine residues) (protein) DSDDRVTPPAEPLDRMPDPYRPSYGRAETVVNNYIRKWQQVYSHRDGRKQQMTEEQREWLSYGCVGVTWVNSGQYPTNRLAFASFDEDRFKNELKNGRPRSGETRAEFEGRVAKESFDEEKGFQRAREVASVMNRALENAHDESAYLDNLKKELANGNDALRNEDARSPFYSALRNTPSFKERNGGNHDPSRMKAVIYSKHFWSGQDRSSSADKRKYGDPDAFRPAPGTGLVDMSRDRNIPRSPTSPGEGFVNFDYGWFGAQTEADADKTVWTHGNHGGGMHVYESKFRNWSEGYSDFDRGAYVITFIPKSWNTAPDKVKQGWP,,"only 3 groups and 2 groups of the signals were found when Sg4 and Sg7 were used, respectively",
"Ser-type MTG (mutant in which Asp1 has been removed, starts with Ser2) (protein) SDDRVTPPAEPLDRMPDPYRPSYGRAETVVNNYIRKWQQVYSHRDGRKQQMTEEQREWLSYGCVGVTWVNSGQYPTNRLAFASFDEDRFKNELKNGRPRSGETRAEFEGRVAKESFDEEKGFQRAREVASVMNRALENAHDESAYLDNLKKELANGNDALRNEDARSPFYSALRNTPSFKERNGGNHDPSRMKAVIYSKHFWSGQDRSSSADKRKYGDPDAFRPAPGTGLVDMSRDRNIPRSPTSPGEGFVNFDYGWFGAQTEADADKTVWTHGNHYHAPNGSLGAMHVYESKFRNWSEGYSDFDRGAYVITFIPKSWNTAPDKVKQGWP",,,"15N-labeling rate of the ovalbumin glutamine residue giving signal ""a"" (1H-15N HSQC peak intensity vs. reaction time) [1]: more rapidly 15N-labeled when it was reacted with the Ser-type rather than when reacted with the wild type"
"S2Y mutant MTG (Ser2 replaced with Tyr, in Met type MTG) (protein) MDYDDRVTPPAEPLDRMPDPYRPSYGRAETVVNNYIRKWQQVYSHRDGRKQQMTEEQREWLSYGCVGVTWVNSGQYPTNRLAFASFDEDRFKNELKNGRPRSGETRAEFEGRVAKESFDEEKGFQRAREVASVMNRALENAHDESAYLDNLKKELANGNDALRNEDARSPFYSALRNTPSFKERNGGNHDPSRMKAVIYSKHFWSGQDRSSSADKRKYGDPDAFRPAPGTGLVDMSRDRNIPRSPTSPGEGFVNFDYGWFGAQTEADADKTVWTHGNHYHAPNGSLGAMHVYESKFRNWSEGYSDFDRGAYVITFIPKSWNTAPDKVKQGWP",the order of the 15N-labeling rate was S2Y<S2D<wild type<S2R,,
"S2D mutant MTG (Ser2 replaced with Asp, in Met type MTG) (protein) MDDDDRVTPPAEPLDRMPDPYRPSYGRAETVVNNYIRKWQQVYSHRDGRKQQMTEEQREWLSYGCVGVTWVNSGQYPTNRLAFASFDEDRFKNELKNGRPRSGETRAEFEGRVAKESFDEEKGFQRAREVASVMNRALENAHDESAYLDNLKKELANGNDALRNEDARSPFYSALRNTPSFKERNGGNHDPSRMKAVIYSKHFWSGQDRSSSADKRKYGDPDAFRPAPGTGLVDMSRDRNIPRSPTSPGEGFVNFDYGWFGAQTEADADKTVWTHGNHYHAPNGSLGAMHVYESKFRNWSEGYSDFDRGAYVITFIPKSWNTAPDKVKQGWP",the order of the 15N-labeling rate was S2Y<S2D<wild type<S2R,,
"S2R mutant MTG (Ser2 replaced with Arg, in Met type MTG) (protein) MDRDDRVTPPAEPLDRMPDPYRPSYGRAETVVNNYIRKWQQVYSHRDGRKQQMTEEQREWLSYGCVGVTWVNSGQYPTNRLAFASFDEDRFKNELKNGRPRSGETRAEFEGRVAKESFDEEKGFQRAREVASVMNRALENAHDESAYLDNLKKELANGNDALRNEDARSPFYSALRNTPSFKERNGGNHDPSRMKAVIYSKHFWSGQDRSSSADKRKYGDPDAFRPAPGTGLVDMSRDRNIPRSPTSPGEGFVNFDYGWFGAQTEADADKTVWTHGNHYHAPNGSLGAMHVYESKFRNWSEGYSDFDRGAYVITFIPKSWNTAPDKVKQGWP",the order of the 15N-labeling rate was S2Y<S2D<wild type<S2R,,
del 1-2 mutant MTG (residue Nos. 1 and 2 removed) (protein) DDRVTPPAEPLDRMPDPYRPSYGRAETVVNNYIRKWQQVYSHRDGRKQQMTEEQREWLSYGCVGVTWVNSGQYPTNRLAFASFDEDRFKNELKNGRPRSGETRAEFEGRVAKESFDEEKGFQRAREVASVMNRALENAHDESAYLDNLKKELANGNDALRNEDARSPFYSALRNTPSFKERNGGNHDPSRMKAVIYSKHFWSGQDRSSSADKRKYGDPDAFRPAPGTGLVDMSRDRNIPRSPTSPGEGFVNFDYGWFGAQTEADADKTVWTHGNHYHAPNGSLGAMHVYESKFRNWSEGYSDFDRGAYVITFIPKSWNTAPDKVKQGWP,,,"reactivity to the ovalbumin glutamine residue giving signal ""a"" (1H-15N HSQC peak intensity vs. reaction time) [1]: the reactivity of each of del 1-2 and del 1-3 was improved as compared with that of the wild type"
del 1-3 mutant MTG (residue Nos. 1 to 3 removed) (protein) DRVTPPAEPLDRMPDPYRPSYGRAETVVNNYIRKWQQVYSHRDGRKQQMTEEQREWLSYGCVGVTWVNSGQYPTNRLAFASFDEDRFKNELKNGRPRSGETRAEFEGRVAKESFDEEKGFQRAREVASVMNRALENAHDESAYLDNLKKELANGNDALRNEDARSPFYSALRNTPSFKERNGGNHDPSRMKAVIYSKHFWSGQDRSSSADKRKYGDPDAFRPAPGTGLVDMSRDRNIPRSPTSPGEGFVNFDYGWFGAQTEADADKTVWTHGNHYHAPNGSLGAMHVYESKFRNWSEGYSDFDRGAYVITFIPKSWNTAPDKVKQGWP,,,"reactivity to the ovalbumin glutamine residue giving signal ""a"" (1H-15N HSQC peak intensity vs. reaction time) [1]: the reactivity of each of del 1-2 and del 1-3 was improved as compared with that of the wild type; also recorded: the reactivity of del 1-3 was even much higher than that of Ser type or S2R"
